Here are results for one substance from US20260008817A1, “CYCLIC PEPTIDE OR SALT THEREOF, AND USES THEREOF” (FUJIFILM Corporation, priority 2023, published 2026).

Series [1] in a line: Reductive stability of cyclic peptide (DTT treatment, LC). It counts as physicochemical. Conditions: residual rate after DTT treatment, room temperature, 1 hour. The procedure:
The molecular stability of the cyclic peptide was evaluated by analyzing an aqueous solution of the cyclic peptide treated with a reducing agent by liquid chromatography (LC).
The reducing agent treatment was performed under the following conditions based on the concentration of glutathione contained in the cells. 25 μL of a 0.2 mg/mL cyclic peptide aqueous solution was prepared, 58.8 μL of a 12.6 mmol/L DTT aqueous solution was added to the aqueous solution, and the mixture was incubated at room temperature for 1 hour to obtain an aqueous solution of the cyclic peptide treated with a reducing agent. The DTT aqueous solution was used by diluting a 1 mol/L (+−)-dithiothreitol (DTT) solution (FUJIFILM Wako Pure Chemical Corporation, 044-33871) with water. The total area of all the peaks in LC/MS of the cyclic peptide before the reducing agent treatment was set to 100%, and the proportion of the total area of all the peaks in LC/MS of the aqueous solution of the cyclic peptide treated with the reducing agent was determined to calculate the residual rate of the cyclic peptide, and the molecular stability was evaluated according to the following evaluation criteria. The evaluation result preferably satisfies the evaluation criteria A, B, or C.
• A: The residual rate of cyclic peptide is 90% or more. • B: The residual rate of the cyclic peptide is 70% or more and less than 90% • C: The residual rate of the cyclic peptide is 50% or more and less than 70% • D: The residual rate of the cyclic peptide is less than 50%
The LC used for the evaluation of molecular stability was set to the following conditions. • LC device: Prominence series (pump, column oven, autosampler, detector) (manufactured by Shimadzu Corporation) • Detector: photodiode array detector (SPD-M20A), measurement wavelength of 280 nm • Column: TSKgel ODS-100V, inner diameter of 4.6 mm×length of 150 mm, particle diameter of 5 μm (manufactured by Tosoh Corporation) • Eluent A: solution containing 0.1% trifluoroacetic acid as solute, and solvent is 100% water • Eluent B: solution containing 0.1% trifluoroacetic acid as solute, and solvent is 100% acetonitrile • Flow rate: 1.0 mL/min • Injection amount: 25 μL • Gradient: 20% to 50%: Eluent B (0 to 15 minutes), 100%: Eluent B (15 minutes) • Column temperature: 40° C.

The target of series [2] is T1, FGFR1 Protein, Human, Recombinant (His Tag) (Homo sapiens, UniProt P11362).
T1 construct: His tag; purchased Sino Biological 10616-H08H
T1 sequence (P11362 22-285 isoform P11362-14 limits assumed): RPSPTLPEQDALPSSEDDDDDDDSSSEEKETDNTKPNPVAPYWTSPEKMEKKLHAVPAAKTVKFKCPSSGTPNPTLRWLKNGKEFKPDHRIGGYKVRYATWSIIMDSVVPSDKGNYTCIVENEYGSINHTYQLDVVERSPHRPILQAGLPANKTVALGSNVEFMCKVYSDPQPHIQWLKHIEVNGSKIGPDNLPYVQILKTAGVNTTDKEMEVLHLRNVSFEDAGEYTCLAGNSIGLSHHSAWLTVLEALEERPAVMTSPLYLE
Description: SPR FGFR versatility, FGFR1 on immobilized cyclic peptide. As to conditions: 1 μmol/L FGFR, 25° C. It counts as binding. The procedure:
The binding of the cyclic peptide to various types of FGFRs was evaluated using a surface plasmon resonance (SPR) method.
The binding affinity of the chemically synthesized cyclic peptide to FGFR was evaluated by the following procedure.
A CM5 sensor chip (Cytiva, 29149603) was set in Biacore-T200 (manufactured by Cytiva) which is a surface plasmon resonance device, and an HBS-EP buffer (Cytiva, BR100826) was added as a running buffer at a flow rate of 10 μL/min to equilibrate the flow channel. Next, 70 μL of a mixed aqueous solution of 0.2 mol/L 1-(3-dimethylaminopropyl)-3-ethylcarbodiimide (EDC) and 0.05 mol/L N-hydroxysuccinimide (NHS) was added to activate the sensor chip. Then, a cyclic peptide prepared to 2 mg/mL in HBS-EP buffer was added thereto to perform immobilization at about 200 RU. […]
After various FGFRs (FGFR1 Protein, Human, Recombinant (His Tag) (Sino Biological, 10616-H08H), FGFR3 Protein, Human, Recombinant (ECD, His Tag) (Sino Biological, 16044-H08H), FGFR4 Protein, Human, Recombinant (His Tag) (Sino Biological, 10538-H08H)) diluted with HBS-EP to 1 μmol/L at 25° C. was added to each flow channel of the cyclic peptide-immobilized sensor chip prepared above, for 10 minutes, HBS-EP was allowed to flow as a running buffer for 30 minutes, and the binding of various FGFRs to the cyclic peptide was measured. […]

In the case of “335 (ACVWTFDRHAQEISQALHKVKKK; not fully specified; Description of Artificial Sequence: Cyclic peptide) [compound 335]”, the “Evaluation result of reductive stability” value in series [1] was “B (The residual rate of the cyclic peptide is 70% or more and less than 90%)”. Besides, the “Evaluation result of binding affinity to FGFR1” value in series [2] was “A (The binding amount is 0.05 molecules of FGFR/one molecule of the cyclic peptide or more.)”.
